According to the Immune Epitope Database (IEDB):

molecular target: HLA-B*07:02; assay: IEDB peptide-MHC binding, purified MHC/competitive/radioactivity; ≥ and ≤ were set here for values at or beyond the usual limits of such assays; details: source organism: Bordetella pertussis

Row | Sequence | IC50 [µM]
1 | GAPAAVSVL | 69.6
2 | HVRGMLVPV | 6.16

molecular target: HLA-B*53:01; assay: as above; details: source organism: Bordetella pertussis

Row | Sequence | IC50 [µM]
3 | DASGQHRLW | 25.6
4 | KPLADIAVI | 15.7
5 | PAPTAPPMP | 53.4
6 | YPALRAALI | 9.5

molecular target: HLA-B*44:03; assay: as above; details: source organism: Bordetella pertussis

Row | Sequence | IC50 [µM]
7 | AEATQLVTA | 2.18
8 | AESSEAMAA | 7.54
9 | FELGADHAV | ≥ 78.2
10 | IETGGARRF | 22.1
11 | VEVSSPPPV | 28.8

molecular target: HLA-A*02:01; assay: as above; details: source organism: Bordetella pertussis

Row | Sequence | IC50 [µM]
12 | TLNASNLTL | 4.46
13 | VIDGQKVLA | 35.2

molecular target: HLA-B*57:01; assay: as above; details: source organism: Bordetella pertussis

Row | Sequence | IC50 [µM]
14 | DASGQHRLW | ≥ 70.4
15 | KGPKLAMPW | 4.87
16 | RGWSIFALY | 1.05
17 | VSVKVAKKL | 37.4

molecular target: HLA-B*35:01; assay: as above; details: source organism: Bordetella pertussis

Row | Sequence | IC50 [µM]
18 | AAESTFESY | 44.6
19 | HAEHEKDVR | 69.9
20 | KAAKSVNLM | 50.6
21 | LPTHLYKNF | 10.5
